Assay results reported in publication PMC3927398.
pKd: −log10 of the molar value.

What was measured:
[1] = target: actin filaments (F-actin) from rabbit skeletal muscle, phalloidin-stabilized (rabbit) (UniProt P68135); assay: co-sedimentation
[2] = target: MYO19-1IQ (N-terminal FLAG-tagged human MYO19, motor domain and one IQ motif, amino acids 2-787) (human) (UniProt Q96H55); assay: co-purification

What does the source list for “MYO19-1IQ with bound calmodulin light chain (from UniProt Q96H55-1 2-787; P0DP23 1-149) (complex)”?
pKd [1]: 5.92; fraction bound at 5 μM actin without ATP [1]: 0.8

“calmodulin (from UniProt P0DP23 1-149) (natural protein)” was tested. Which stoichiometry N (CaM/MYO19-1IQ) [2] did it give?
Its stoichiometry N (CaM/MYO19-1IQ) is 1.1.
